Experiment [1] deals with T1, receptor-binding domain (RBD) of the spike (S) protein of SARS-CoV-2 (SARS-CoV-2, UniProt P0DTC2 319-541).
T1 construct: also called soluble RBD
Briefly: ELISA, coated RBD. A general note: ELISA stands for enzyme-linked immunosorbent assay.

The target of experiment [2] is S1 (truncated S1 subunit). Briefly: ELISA, coated truncated S1.
The target of experiment [3] is S1 (truncated S1 subunit). Briefly: ELISA, coated truncated S1 [cont'd].
For experiment [4], the target named is T1, receptor-binding domain (RBD) of the …. Briefly: ELISA, coated RBD [cont'd].
Experiment [5] has the same target. Put plainly: ELISA, coated RBD [cont'd]. The source holds these as a separate data set.
In experiment [6] the target is S1 (truncated S1 subunit). Put plainly: ELISA, coated truncated S1 [cont'd]. This is another data set of the same source.
The target of experiment [7] is T1, receptor-binding domain (RBD) of the ….
Experiment [8] deals with S1 (truncated S1 subunit). Briefly: ELISA, coated truncated S1 [cont'd]. This is another data set of the same source.
The target of experiment [9] is T1, receptor-binding domain (RBD) of the …. Briefly: ELISA, coated RBD [cont'd]. This is another data set of the same source.

Numbering of substitutions follows the chain as printed. Where only a bound is given, the exact number is not on record here.

Broadly, the EC50 is the concentration giving half of the maximal effect. Low readings indicate an effect from little substance, high ones a need for much substance. A word on the Kd: it is the equilibrium constant for the complex coming apart. Read a high Kd as weaker binding.

B1: CnC2t1p1_B4 (antibody, V domains shown)
VH: QVQLVQSGAEVKKPGASVKVSCKASGYTFTSYGISWVRQAPGQGLEWMGWISAYNGNTNYAQKLQGRVTMTTDTSTSTAYMELRSLRSDDTAVYYCARDGELLGWFDPWGQGTLVTVSS
VL: QSALTQPASVSGSPGQSITISCTGTSSDVGSYNLVSWYQQHPGKAPKLMIYEGSKRPSGVSNRFSGSKSGNTASLTISGLQAEDEADYYCCSYAGSSTWVFGGGTKLTVL
Regarding B1, the EC50 in experiment [1] and in [2] was less than 100 µg/mL throughout.

B2: CnC2t1p1_E8 (antibody, V domains shown)
VH: QVQLVQSGAEVKNPGASVKVSCKASGYIFTNYYIHWVRQAPGQGLEWVGWIHSLSGGTSYAQKFQGRVTLTRDASIRTAYMELSRLGSDDTALYYCARASVSTITDFDYWGQGTLVAVSS
VL: B1 VL with S27G, M49V, G53A, S54T, S65F, G66A, S96V, S97R, W99V
As for B2, the EC50 in [1] and in [2] was less than 100 µg/mL each time.

B3: CnC2t1p1_G6 (antibody, V domains shown)
VH: B2 VH with N13K, S75P, R85G, L93V, S102A
VL: B1 VL with S27G, V29I, H41Y, M49I, G53A, S65F, G66A, S96V, S97R, W99V
As to B3, the EC50 in [1] and in experiment [2] was less than 100 µg/mL each time.

B4: HbnC3t1p1_C6 (antibody, V domains shown)
VH: QMQLVQSGPEVKKPGTSVKVSCKASGFTFTSSAVQWVRQARGQRLEWIGWIVVGSGNTNYAQKFQERVTITRDMSTSTAYMELSSLRSEDTAVYYCAAPHCSSTICYDGFDIWGQGTMVTVSS
VL: not shown
On to B4, for which the EC50 in [3] and in [4] was less than 100 µg/mL each time.

B5: CnC2t1p1_B10 (antibody, V domains shown)
VH: QVQLVQSGAEVKKPGSSVKVSCKASGGTFSSYAISWVRQAPGQGLEWMGGIIPIFGTANYAQKFQGRVTITADKSTSTAYMELSSLRSEDTAVYYCARVSGYDSSGYWGDYWGQGTLVTVSS
VL: EIVLTQSPATLSLSPGERATLSCRASQSVSSYLAWYQQKPGQAPRLLIYDASNRATGIPARFSGSGSGTDFTLTISSLEPEDFAVYYCQQRSNWPPALTFGGGTKVEIK
As for B5, the EC50 in [1] and in [2] was less than 100 µg/mL throughout.

B6: MnC2t1p1_A3 (antibody, V domains shown)
VH: EVQLVESGGGLVQPGGSLRLSCAASGFTVSSNYMSWVRQAPGRGLEWVSVIYSGGSTFYADSVKGRFTISRDNSKNTLYLQMNSLRPEDTAVYYCATGARFGESPFDYWGQGTLVTVSS
VL: DIQMTQSPSSVSASVGDRVTITCRASQGISSWLAWYQQKPGKAPKLLIYAASSLQSGVPSRFSGSGSGTDFTLTISSLQPEDFATYYCQQANSFPGTFGQGTKVEIK
For the molecule B6, the EC50 in experiment [5] and in [6] was less than 100 µg/mL in each case. This molecule had a Kd in experiment [7] of 0.7 nM.

B7: MnC2t1p1_C5 (antibody, V domains shown)
VH: B6 VH with R43K, F58Y, P87A
VL: B6 VL
As to B7, the EC50 in experiment [5] and in experiment [6] was less than 100 µg/mL throughout.

B8: FnC1t1p2_A5 (antibody, V domains shown)
VH: QVQLVQSGAEVKKPGASVKVSCKASGYTFTSYDINWVRQATGQGLEWMGWMNPNSGNTGYAQKFQGRVTMTRNTSISTAYMELSSLRSEDTAVYYCARATTDCSSTSCWSLDFWSGYYTGGREKIFDYWGQGTLVTVSS
VL: not shown
Consider B8, for which the binding result in [1] is on record as “no binding”. The molecule also came in with an EC50 in [2] of more than 1000 µg/mL.

B9: HbnC3t1p1_G4 (antibody, V domains shown)
VH: EVQLVESGGGLVQPGGSLRLSCAASGFTVSSNYMSWVRQAPGKGLEWVSVIYSGGSTFYADSVKGRFTISRDNSKNTLYLQMNSLRAEDTAVYYCARDFGDFFFDYWGQGTLVTVSS
VL: EIVLTQSPGTLSLSPGERATLSCRASQSVSSYLAWYQQKPGQAPRLLIYGVSSRATGIPDRFSGSGSGTDFTLTISRLEPEDFAVYYCQQYGSSPRTFGQGTKVEIK
As to B9, the EC50 in [3] and in [4] was less than 100 µg/mL throughout.

B10: HbnC3t1p2_B10 (antibody, V domains shown)
VH: B9 VH with T28I, F99Y, F102Y
VL: B9 VL with Y49S, V51A, T56A, S76N, V104L
As to B10, the EC50 in experiment [3] and in experiment [4] was less than 100 µg/mL throughout.

B11: CnC2t1p1_D6 (antibody, V domains shown)
VH: EVQLVESGGGLVQPGRSLRLSCTASGFTFGDYAMSWFRQAPGKGLEWVGFIRSKAYGGTTEYAASVKGRFTISRDDSKSIAYLQMNSLKTEDTAVYYCTRVRRLWFGSYYYGMDVWGQGTTVTVSS
VL: not shown
B11: the EC50 in [1] and in experiment [2] was less than 100 µg/mL each time.

B12: MnC1t3p1_G9 (antibody, V domains shown)
VH: EVQLLESGGGLVQPGGSLRLSCAASGFTFRNYAMTWVRQAPGKGLEWVSGISDSGDRTYNADSVKGRFSISRDNSKNTLHLQMNSLRAEDTAVYYCALASGSYFGGANYWGQGTLVTVSS
VL: QAVVTQEPSLTVSPGGTVTLTCGSSTGPVTSDHYPYWFQQKPGQAPTTLIYDTNNKHSWTPARFSGSLLGGKAALTLSGAQPEDEAEYYCLLSYTGARVFGGGTKLTVL
As for B12, the EC50 in [5] and in experiment [6] was less than 100 µg/mL each time.

B13: HbnC3t1p1_F4 (antibody, V domains shown)
VH: QVQLVESGGGVVQPGRSLRLSCAATGFTFRRYGMHWVRQAPGKGLEWVAGILFDGSNKYYVDSVKGRFTISRDSSRNTLYLQLNSLRREDTAVYYCAKGGDYEWELLESWGQGTLVTVSS
VL: DIQMTQSPSTVSASVGDRVTITCRASQSIDNWLAWYQEKPGKAPKVLIYKASSLESGVPSRFSGRGSGTEFTLTISSLQPGDFATYYCQHYHSFPLTFGGGTKVDIK
As for B13, the EC50 was less than 100 µg/mL in [3] and less than 1000 µg/mL in experiment [4].

B14: MnC2t2p1_C11 (antibody, V domains shown)
VH: QVQLVQSGAEVKKPGSSVKVSCKASGGTFSRYTIIWVRQAPGQGLEWMGRIIPILDIANYAQKFQGRVTITADKSTSTAYMELSSLRSEDTAVYYCAREGGLDYFGSRNSGWTYTWFDPWGQGTLVTVSS
VL: DIQMTQSPSSLSASVGDRVTITCRASQNISSYLNWYQQKPGKAPNLLIYAASSLQSGVPPRFSGSGSGTDFTLTISSLQPEDFATYYCQQSYSTLYSFGQGTKLEIK
Turning to B14, the EC50 in [5] and in [6] was less than 100 µg/mL each time. In [7], this molecule gave a Kd of 0.02 nM.

B15: HbnC4t1p1_D5 (antibody, V domains shown)
VH: EVQLVESGGGLVQPGRSLRLSCAASGFTFDDYAMHWVRQAPGKGLEWVSGISWNSGSIGYADSVKGRFTISRDNAKNSLYLQMNSLRAEDTGLYYCAKDINYDSGGYHKNYFDYWGQGTLVTVSS
VL: DIQMTQSPSSLSASVGDRATITCRASQSISSYLNWYQEKPGKAPKLLIYAASSLQSGVPSRFSGSGSGTDFTLTISSLQPEDFATYYCQQSYSNPLTFGGGTKVEIK
Regarding B15, the EC50 in experiment [3] and in experiment [4] was less than 1000 µg/mL in each case.

B16: MnC4t2p1_B3 (antibody, V domains shown)
VH: EVQLVESGGHLVQPGRSLRLSCAASGFTFDDYAMHWVRQVPGKGLEWVSGISWNGGILDYADSVKGRFTISRDNAKNSLYLHMRSLRTDDTALYYCAKDLRRQDYYADWYFDLWGRGTLVTVSS
VL: DIQMIQSPSSVSASVGDRVTITCRASQGISSWLAWYQQKPGKAPKLLIYAASTLLSAVPSRFSGSGSGTDFTLTISSLQPEDFATYYCQQGNSFPFTFGPGTIVDV
For B16, the EC50 in experiment [5] and in [6] was less than 100 µg/mL throughout. In experiment [7], this molecule returned a Kd of 0.09 nM.

B17: MnC4t2p1_E6 (antibody, V domains shown)
VH: B16 VH with D59G, H82Q
VL: B16 VL with I5T, I103K
Turning to B17, the EC50 in experiment [8] and in [9] was less than 100 µg/mL throughout.

B18: FnC1t2p1_D4 (antibody, V domains shown)
VH: QVQLVQSGSELKKPGASVKVSCKASGYTFLRFAMNWLRQAPGQGLEWMGWIDTNTGTPTYAQGFTGRFVFSLDTSVSTAYLQISSLKAEDTAVYYCARSLRGANLVPWGQGTLVTVSS
VL: DIQMTQSPSSLSASVGDRVTITCQASQDVSNYLNWYQQQPGKAPKLLIYDAFNLETGVPSRFSGSGSGTDFTFTISSLQPEDIATYYCQQYDNLPLTFGGGTKVEIK
Molecule B18 yielded a dissociation constant (Kd) in experiment [7] of 0.2 nM. Moreover, the EC50 in [1] and in experiment [2] was less than 100 µg/mL in each case.

B19: FnC1t2p1_G5 (antibody, V domains shown)
VH: B18 VH
VL: B18 VL
For the molecule B19, the EC50 in experiment [3] and in experiment [4] was less than 100 µg/mL throughout. The affinity in [7], expressed as Kd, was 0.1 nM.

B20: HbnC2t1p2_D9 (antibody, V domains shown)
VH: QVQLVESGGGVVQPGRSLRLSCAASGFTFSSYGMHWVRQAPGKGLEWVAVIWYDGRNKYYVDSVKGRFTISRDNSKNTLYLQISSLRAEDTAVYYCARAARRPVVTDTMAYYMDVWGKGTTVTVSS
VL: EIVLTQSPATLSLSPGERATLSCRASLSLSSYLAWYQQKPGQAPRLLIYDASNRATGIPARFSGSGSGTDFTLTISSLEPEDFAVYYCQQRSNWPPTWTFGQGTKAEIKR
For B20, the EC50 in experiment [3] and in experiment [4] was less than 1000 µg/mL in each case.

Values taken from US20210371503A1 (UNIVERSITY OF COLOGNE, published 2021).
